Results on two variants are retold here after IntAct's records for PubMed 19798056.

To fix the notation:
B1: TOM1-like protein 1 (Homo sapiens), O75674 (parent)
chain: MAFGKSHRDPYATSVGHLIEKATFAGVQTEDWGQFMHICDIINTTQDGPKDAVKALKKRISKNYNHKEIQLTLSLIDMCVQNCGPSFQSLIVKKEFVKENLVKLLNPRYNLPLDIQNRILNFIKTWSQGFPGGVDVSEVKEVYLDLVKKGVQFPPSEAEAETARQETAQISSNPPTSVPTAPALSSVIAPKNSTVTLVPEQIGKLHSELDMVKMNVRVMSAILMENTPGSENHEDIELLQKLYKTGREMQERIMDLLVVVENEDVTVELIQVNEDLNNAILGYERFTRNQQRILEQNKNQKEATNTTSEPSAPSQDLLDLSPSPRMPRATLGELNTMNNQLSGLNFSLPSSDVTNNLKPSLHPQMNLLALENTEIPPFAQRTSQNLTSSHAYDNFLEHSNSVFLQPVSLQTIAAAPSNQSLPPLPSNHPAMTKSDLQPPNYYEVMEFDPLAPAVTTEAIYEEIDAHQHKGAQNDGD

Variants of B1 are the subject of the first assay. The settings on record: with grb2_human GRB2, P62993.
Chain of grb2_human GRB2, P62993 (P62993 whole entry, looked up): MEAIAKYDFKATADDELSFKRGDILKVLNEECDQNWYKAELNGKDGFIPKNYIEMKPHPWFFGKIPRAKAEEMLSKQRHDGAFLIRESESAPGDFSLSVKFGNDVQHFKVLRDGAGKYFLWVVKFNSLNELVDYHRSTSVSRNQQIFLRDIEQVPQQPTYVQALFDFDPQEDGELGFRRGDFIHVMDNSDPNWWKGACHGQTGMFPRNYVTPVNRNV
With Y392F, the “effect of a mutation on the interaction” value is “disrupting interaction”.

A further assay covers variants of B1. To be noted: with grb2_human GRB2, P62993. The source holds these as a separate data set.
For the variant Y460F, the “effect of a mutation on the interaction” value was “disrupting interaction”.
